Source: patent US20240116985A1 (published 2024)
Starred links: 1 amine or outer side, 2 acyl side, 3 side chain; linkers in the order of their positions; H or OH if unused. Positions of bridges follow the written chain, without caps; N, C: chain ends. Non-standard residues stand in square brackets, D forms with d. Primed or numbered codes have the meaning given here. No end group written: not given here. *: point of attachment. PyrS2″ = (S)-3-amino-1-((pent-4-en-1-yloxy)carbonyl)pyrrolidine-3-carboxylic acid (stapling residue), C=CCCCOC(=O)N1CC[C@@](N[*:1])(C(=O)[*:2])C1; B5(4) = 2,2-bis(4-pentenyl)glycine = 2-amino-2-(pent-4-en-1-yl)hept-6-enoic acid (stitching residue), C=CCCCC(CCCC=C)(N[*:1])C(=O)[*:2]; TfeGA = (S)-2-amino-3-((carboxymethyl)(2,2,2-trifluoroethyl)amino)propanoic acid, O=C([C@H](CN(CC(=O)[*:3])CC(F)(F)F)N[*:1])[*:2]; PyrS2 = (S)-3-amino-1-((pent-4-en-1-yloxy)carbonyl)pyrrolidine-3-carboxylic acid, C=CCCCOC(=O)N1CC[C@@](N[*:1])(C(=O)[*:2])C1; B5(3) = 2,2-bis(4-pentenyl)glycine (stitching residue), C=CCCCC(CCCC=C)(N[*:1])C(=O)[*:2]; Phe(3-CF3) = N[C@@H](Cc1cccc(C(F)(F)F)c1)C(=O)O; Phe(4-CF3) = N[C@@H](Cc1ccc(C(F)(F)F)cc1)C(=O)O; Phe(2-CF3) = N[C@@H](Cc1ccccc1C(F)(F)F)C(=O)O; Phe(2-Cl) = N[C@@H](Cc1ccccc1Cl)C(=O)O; Ala(cPent) = N[C@@H](CC1CCCC1)C(=O)O; Bta = N[C@@H](Cc1csc2ccccc12)C(=O)O; αAllylPro = C=CC[C@@]1(C(=O)O)CCCN1; tBuAla = CC(C)(C)C[C@H](N)C(=O)O; 3Thi = N[C@@H](Cc1ccsc1)C(=O)O; Cha = N[C@@H](CC1CCCCC1)C(=O)O; S8 = C=CCCCCCC[C@](C)(N)C(=O)O; Thr(ol) = C[C@@H](O)[C@H](N)CO; Phe(ol) = N[C@H](CO)Cc1ccccc1; NH(CH2)6NH2 = NCCCCCCN*

B1: I-1356 (peptide)
peptide: [αAllylPro]D[tBuAla][B5(4)]DDAAFS[PyrS2″]F[Bta]S-NH2
modifications: staple 1-4, 4-11; not fully specified; printed as PL3-Asp-Npg-B5-Asp-Asp-Ala-Ala-Phe-Ser-PyrS2-Phe-BztA-Ser-NH2

target: T1, B-cat-Halo (UniProt P35222 1-781); assay: cell-based or functional assay
T1 sequence (looked up): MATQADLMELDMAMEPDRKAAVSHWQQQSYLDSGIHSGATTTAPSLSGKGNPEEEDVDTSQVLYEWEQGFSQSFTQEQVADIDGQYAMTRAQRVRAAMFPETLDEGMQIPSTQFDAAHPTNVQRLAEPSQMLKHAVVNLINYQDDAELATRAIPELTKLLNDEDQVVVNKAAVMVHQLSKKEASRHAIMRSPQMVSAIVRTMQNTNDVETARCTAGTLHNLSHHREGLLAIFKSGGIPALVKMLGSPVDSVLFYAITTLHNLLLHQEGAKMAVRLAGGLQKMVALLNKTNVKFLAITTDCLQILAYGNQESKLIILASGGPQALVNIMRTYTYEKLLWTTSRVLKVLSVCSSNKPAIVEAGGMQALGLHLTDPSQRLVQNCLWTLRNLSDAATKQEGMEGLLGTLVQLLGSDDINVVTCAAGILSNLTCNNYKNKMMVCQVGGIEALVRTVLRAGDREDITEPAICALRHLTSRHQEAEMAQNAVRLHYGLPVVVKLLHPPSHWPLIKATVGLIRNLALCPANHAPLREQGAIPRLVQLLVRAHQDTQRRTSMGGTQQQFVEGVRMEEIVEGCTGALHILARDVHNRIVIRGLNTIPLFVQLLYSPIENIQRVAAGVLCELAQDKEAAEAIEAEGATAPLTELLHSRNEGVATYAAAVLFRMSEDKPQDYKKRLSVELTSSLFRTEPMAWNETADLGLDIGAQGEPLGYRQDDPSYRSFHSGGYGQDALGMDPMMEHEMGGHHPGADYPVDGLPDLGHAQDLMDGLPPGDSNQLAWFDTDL

Going from Ac-[αAllylPro]D[tBuAla][B5(4)]DDAAFL[PyrS2″][Phe(2-Cl)][Bta]Q-NH2 (staple 1-4, 4-11) [I-1062] to Ac-[αAllylPro]D[Cha][B5(4)]DDAAFT[PyrS2″][Phe(2-Cl)][Bta]S-NH2 (staple 1-4, 4-11) [I-1048], the “NanoBRET Abs IC50” value rises from 4.7 µM to 8.8 µM (1.9-fold).

Compared with Ac-[αAllylPro]D[Cha][B5(4)]DDAAFS[PyrS2][Phe(2-Cl)][Bta]S-NH2 (staple 1-4, 4-11) [I-1050], Ac-[αAllylPro]D[tBuAla][B5(4)]D[TfeGA]AAFT[PyrS2][Phe(2-Cl)][Bta]Q-{NH(CH2)6NH2} (staple 1-4, 4-11) [I-1061] is 2.4-fold lower in “NanoBRET Abs IC50” value: 24.8 µM for the first, 10.3 µM for the second.

target: T2, B-cat-Halo (beta-catenin HaloTag NanoBRET construct expressed in HEK293 cells) (UniProt P35222 2-781); assay: cell-based or functional assay
T2 sequence (looked up): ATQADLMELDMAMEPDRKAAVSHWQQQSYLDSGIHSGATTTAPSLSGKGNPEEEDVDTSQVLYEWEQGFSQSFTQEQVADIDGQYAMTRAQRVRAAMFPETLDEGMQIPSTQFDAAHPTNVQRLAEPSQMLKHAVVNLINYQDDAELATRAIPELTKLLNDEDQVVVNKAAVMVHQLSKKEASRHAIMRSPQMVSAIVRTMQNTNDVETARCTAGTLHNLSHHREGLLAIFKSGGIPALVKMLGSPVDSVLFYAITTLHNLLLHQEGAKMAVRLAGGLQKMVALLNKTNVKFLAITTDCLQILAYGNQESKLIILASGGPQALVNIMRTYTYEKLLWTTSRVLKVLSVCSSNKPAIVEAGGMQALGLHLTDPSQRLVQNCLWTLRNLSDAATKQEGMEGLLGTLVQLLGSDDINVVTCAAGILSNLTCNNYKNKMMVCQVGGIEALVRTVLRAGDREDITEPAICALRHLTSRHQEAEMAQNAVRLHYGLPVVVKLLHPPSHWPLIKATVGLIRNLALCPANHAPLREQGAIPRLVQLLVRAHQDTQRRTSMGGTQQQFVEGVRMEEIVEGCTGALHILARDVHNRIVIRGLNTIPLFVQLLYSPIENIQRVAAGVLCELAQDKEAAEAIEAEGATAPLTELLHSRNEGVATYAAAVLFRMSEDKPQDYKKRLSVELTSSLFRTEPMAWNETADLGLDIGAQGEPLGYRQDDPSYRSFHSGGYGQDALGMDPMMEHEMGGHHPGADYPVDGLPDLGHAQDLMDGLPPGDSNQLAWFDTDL

Ac-[αAllylPro]D[tBuAla][B5(4)]DDAAFN[PyrS2″][Phe(2-Cl)][Bta]Q-NHEt (staple 1-4, 4-11) [I-1079] and Ac-[αAllylPro]D[tBuAla][B5(3)]DDAAFN[PyrS2″][Phe(2-Cl)][Bta][Thr(ol)] (staple 1-4, 4-11) [I-1082] are within 1.5-fold of each other in “NanoBRET Abs IC50” value: 19.7 µM for the first, 14.1 µM for the second.

Ac-[αAllylPro]D[tBuAla][B5(4)]DDAAFL[PyrS2″]F[Bta]Q-NH2 (staple 1-4, 4-11) [I-1072] and Ac-[αAllylPro]D[tBuAla][B5(3)]DDAAFT[S8][Phe(2-Cl)][Bta]Q-NH2 (staple 1-4, 4-11; also: later eluting staple isomer) [I-1087] are within 1.5-fold of each other in “NanoBRET Abs IC50” value: 10.5 µM for the first, 9.3 µM for the second.

Compared with Ac-[αAllylPro]D[tBuAla][B5(3)]DEAAFT[S8][Phe(2-Cl)][Bta]Q-NH2 (staple 1-4, 4-11; also: earlier eluting staple isomer) [I-1088], Ac-[αAllylPro]D[tBuAla][B5(3)]DEAAFT[S8][Phe(2-Cl)][Bta]T-NH2 (staple 1-4, 4-11) [I-1091] is 1.8-fold higher in “NanoBRET Abs IC50” value: 6.3 µM for the first, 11.4 µM for the second.

Ac-[αAllylPro]D[tBuAla][B5(3)]DDAAFT[S8][Phe(2-Cl)][Bta][dT]-NH2 (staple 1-4, 4-11) [I-1092] and Ac-[αAllylPro]D[tBuAla][B5(3)]DDAAFT[S8][Phe(2-Cl)][Bta]Q-NH2 (staple 1-4, 4-11; also: earlier eluting staple isomer) [I-1086] are within 1.5-fold of each other in “NanoBRET Abs IC50” value: 7.7 µM for the first, 10.1 µM for the second.

Compared with Ac-[αAllylPro]D[tBuAla][B5(3)]DEAAFT[S8][Phe(2-Cl)][Bta]Q-NH2 (staple 1-4, 4-11; also: later eluting staple isomer) [I-1089], Ac-[αAllylPro]D[tBuAla][B5(3)]DDAAFN[PyrS2″][Phe(2-Cl)][Bta][Phe(ol)] (staple 1-4, 4-11) [I-1083] is 2.1-fold higher in “NanoBRET Abs IC50” value: 8.9 µM for the first, 18.8 µM for the second.

Ac-[αAllylPro]D[tBuAla][B5(3)]DDAAFT[S8][Phe(2-Cl)][Bta]T-NH2 (staple 1-4, 4-11) [I-1090] was tested, and the “NanoBRET Abs IC50” value was 6.1 µM.

target: T3, Bcat-Halo (beta-catenin HaloTag fusion expressed in HEK293 cells) (UniProt P35222 1-781); assay: cell-based or functional assay
T3 sequence (looked up): T1 sequence (looked up)

First: [αAllylPro]D[tBuAla][B5(4)]DDAAFN[PyrS2″][Ala(cPent)][Bta]Q-NH2 (staple 1-4, 4-11) [I-1352]
Second: Ac-[αAllylPro]D[tBuAla][B5(4)]DDAAF[Phe(4-CF3)][PyrS2][Phe(2-Cl)][Bta]Q-NH2 (staple 1-4, 4-11) [I-1369]
The “NanoBRET Abs IC50” value of the first is 2-fold higher: 19.5 µM for the first, 9.9 µM for the second.

Going from B1 to Ac-[αAllylPro]D[tBuAla][B5(4)]DDAAF[Phe(2-CF3)][PyrS2][3Thi][Bta]Q-NH2 (staple 1-4, 4-11) [I-1363], the “NanoBRET Abs IC50” value falls from greater than 20 µM to 5.5 µM.

Ac-[αAllylPro]D[tBuAla][B5(4)]DDAAF[Phe(3-CF3)][PyrS2][3Thi][Bta]Q-NH2 (staple 1-4, 4-11) [I-1364] and Ac-[αAllylPro]D[tBuAla][B5(4)]DDAAF[Phe(2-CF3)][PyrS2][Phe(2-Cl)][Bta]Q-NH2 (staple 1-4, 4-11) [I-1367] are within 1.5-fold of each other in “NanoBRET Abs IC50” value: 10.5 µM for the first, 7.8 µM for the second.

Ac-[αAllylPro]D[tBuAla][B5(4)]DDAAF[Phe(3-CF3)][PyrS2][Phe(2-Cl)][Bta]Q-NH2 (staple 1-4, 4-11) [I-1368] and Ac-[αAllylPro]D[tBuAla][B5(4)]DDAAF[Phe(4-CF3)][PyrS2][3Thi][Bta]Q-NH2 (staple 1-4, 4-11) [I-1365] are within 1.5-fold of each other in “NanoBRET Abs IC50” value: 14.2 µM for the first, 9.7 µM for the second.

First: [αAllylPro]D[tBuAla][B5(4)]DDAAFS[PyrS2″]F[Bta]S-NH2 (staple 1-4, 4-11) [I-1357]
Second: [αAllylPro]D[tBuAla][B5(4)]DDAAFL[PyrS2]F[Bta]Q-NH2 (staple 1-4, 4-11) [I-1362]
The “NanoBRET Abs IC50” value of the first is 1.7-fold higher: 33.6 µM for the first, 19.6 µM for the second.

Ac-[αAllylPro]D[tBuAla][B5(4)]DDAAFF[PyrS2][Phe(2-Cl)][Bta]Q-NH2 (staple 1-4, 4-11) [I-1366] and [αAllylPro]D[tBuAla][B5(4)]DDAAFL[PyrS2″][Ala(cPent)][Bta]Q-NH2 (staple 1-4, 4-11) [I-1353] are within 1.5-fold of each other in “NanoBRET Abs IC50” value: 7.5 µM for the first, 8.8 µM for the second.

For [αAllylPro]D[tBuAla][B5(4)]DDAAFL[PyrS2]F[Bta]Q-NH2 (staple 1-4, 4-11) [I-1361], the “NanoBRET Abs IC50” value was greater than 20 µM.
